Laboratory results as given in the supplement of paper PMC7125110.
± gives the standard error. This sample holds only a part of the variants without activity.

B1: glmS ribozyme (parent)
chain: AUAAAAGCGCCAGAACUACAGAAAUGUAGUUGACGAGGAGGAGGUUUAUCGAAUUUUCGGCGGAUGCCUCCAAA

Key:
Conditions in all cases: with glucosamine-6-phosphate
[1] = variants of: B1; test: self-cleavage kobs at 640 uM GlcN6P; higher = faster cleavage; RNA array
In short: (§1)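 Barcoded ribozyme variants on sequenced MiSeq chips were transcribed in situ by E. coli RNA polymerase and followed at 37 °C through a hybridised Cy3 probe. Glucosamine-6-phosphate at 40 μM to 10 mM in HEPES/KCl/Mg(OAc)2 buffer was flowed in, and tiles were imaged over ~14 h. Signals were normalised to baseline and to non-cleaving reference variants, and per-tile medians were fit to one- or two-exponential decays to give kobs. Weighted Michaelis–Menten fits across concentrations gave kcat and KM.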

[2] = variants of: B1; test: self-cleavage kobs at 2500 uM GlcN6P; higher = faster cleavage; RNA array
In short: as §1

[3] = variants of: B1; test: self-cleavage kobs at 10000 uM GlcN6P; higher = faster cleavage; RNA array
In short: as §1

Variant	self-cleavage kobs at 640 uM GlcN6P [1] [s⁻¹]	self-cleavage kobs at 2500 uM GlcN6P [2] [s⁻¹]	self-cleavage kobs at 10000 uM GlcN6P [3] [s⁻¹]
A14C G35U C61A	< 1e-05	–	–
G38A G41C U54G C61A	< 1e-05	< 1e-05	–
G13A C34A C67U C70G	< 1e-05	< 1e-05	–
C11A U54G C67G C71A	0.0001 ± 4e-05	0.000224 ± 8.9e-05	–
C8G G32A U57G C67U	< 1e-05	–	–
C10U G35C G62C	< 1e-05	< 1e-05	–
A42C A53U U56G	< 1e-05	–	–
A14G U54C C68G	0.000112 ± 3e-05	7.7e-05 ± 1.8e-05	–
A42C C61U C68G C71U	< 1e-05	–	–
U57G C58G C67G	0.000157 ± 5.5e-05	6.13e-05 ± 2.6e-05	3.89e-05 ± 1.9e-05
G43U U54G C58A C67U	< 1e-05	–	–
C8G C58A U65G C71A	< 1e-05	–	–
A6C G13A G38A C58U	< 1e-05	–	–
G35U G59U G60C G62U	< 1e-05	–	–
A15G A36U G41U C70U	< 1e-05	< 1e-05	–
C16U U55A C68U	0.000364 ± 0.00011	0.00062 ± 0.00021	–

Variant	self-cleavage kobs at 640 uM GlcN6P [1] [s⁻¹]	self-cleavage kobs at 2500 uM GlcN6P [2] [s⁻¹]	self-cleavage kobs at 10000 uM GlcN6P [3] [s⁻¹]
G44U A48G C50G	< 1e-05	< 1e-05	< 1e-05
U17G G62U	< 1e-05	–	–
U46A C68G C71G	0.00075 ± 0.00031	–	–
A39C U56C	0.00018 ± 3.3e-05	0.000456 ± 0.00015	0.00101 ± 0.00021
C11U G43A A48U A53C C61U	< 1e-05	< 1e-05	–
G13U U30A A53G	5.33e-05 ± 1.9e-05	–	4.23e-05 ± 1.5e-05
A18C U56C U65G	5.82e-05 ± 2.6e-05	0.000131 ± 6.1e-05	–
A52U A53G G59C	< 1e-05	< 1e-05	–
C16A U56G C58G G62C	< 1e-05	–	–
G66C C68U C70U	0.000337 ± 9.2e-05	–	–
C16G U45A C58A	6.95e-05 ± 1.6e-05	0.000197 ± 3.9e-05	–
G13U U30C C61A	< 1e-05	–	–
G41C U46A G60C	< 1e-05	< 1e-05	–
U45G U49C	< 1e-05	–	< 1e-05
A6U A39C U56C C67G	< 1e-05	–	–
